Experimental data as given in PMC10311464.

Target: hnRNP D0 isoform 3, Myc-DDK-tagged (Origene RC200660) (UniProt Q14103-3 1-306)
Assay: EMSA

B1: rs678849 T allele probe (dsDNA)
DNA 1: TCAAAAGTACCTGCT
DNA 2: AGCAGGTACTTTTGA
binding result: binds
